One test has as its target T1, CCL15_HUMAN (Homo sapiens, UniProt Q16663).
T1 sequence (Q16663 22-113): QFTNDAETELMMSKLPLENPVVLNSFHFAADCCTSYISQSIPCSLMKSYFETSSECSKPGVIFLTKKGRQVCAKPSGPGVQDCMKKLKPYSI
The test is described as follows: Biolayer interferometry (BLI) binding. The method, boiled down: (§1)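 First, His-tagged tick CKBP is immobilised on a Ni-NTA tip. Second, chemokine is applied at 300 nM to screen for binding. Third, positive pairs are titrated with varying chemokine doses and association/dissociation fits give Kd in molar units.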
On the technique in general: Biolayer interferometry detects binding as a change in optical thickness at a sensor tip.

A further test addresses CCL13_HUMAN (Homo sapiens, UniProt Q99616). The test is described as follows: Biolayer interferometry (BLI) binding. The method, boiled down:
as §1

The target in the next test is T2, CCL24_HUMAN (Homo sapiens, UniProt O00175).
T2 sequence (O00175 27-119): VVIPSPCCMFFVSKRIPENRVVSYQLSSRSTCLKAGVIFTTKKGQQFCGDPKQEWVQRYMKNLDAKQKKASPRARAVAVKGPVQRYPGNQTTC
The test is described as follows: Biolayer interferometry (BLI) binding. In short, it runs like this:
as §1

The target of another test is T3, CCL27_HUMAN (Homo sapiens, UniProt Q9Y4X3).
T3 sequence (Q9Y4X3 25-112): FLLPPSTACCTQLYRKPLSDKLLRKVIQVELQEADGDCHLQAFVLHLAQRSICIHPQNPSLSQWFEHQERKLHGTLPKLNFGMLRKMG
The test is described as follows: Biolayer interferometry (BLI) binding. In short, it runs like this: as §1

A further test has as its target T4, CCL14_HUMAN (Homo sapiens, UniProt Q16627).
T4 sequence (Q16627 20-93): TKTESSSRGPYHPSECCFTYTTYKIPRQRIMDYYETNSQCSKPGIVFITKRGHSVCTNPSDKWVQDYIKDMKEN
Kind of test: Biolayer interferometry (BLI) binding. The method, boiled down:
as §1

Test [1] concerns the target T5, CCL18_HUMAN (Homo sapiens, UniProt P55774).
T5 sequence (P55774 21-89): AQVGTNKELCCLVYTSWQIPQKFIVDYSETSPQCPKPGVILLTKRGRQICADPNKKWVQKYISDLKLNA
The test is described as follows: Biolayer interferometry (BLI) binding. The method, boiled down:
as §1

For the next test, the target named is T6, CCL23_HUMAN (Homo sapiens, UniProt P55773).
T6 sequence (P55773 22-120): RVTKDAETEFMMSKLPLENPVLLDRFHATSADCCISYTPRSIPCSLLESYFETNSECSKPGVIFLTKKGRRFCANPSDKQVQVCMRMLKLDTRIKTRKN
Kind of test: Biolayer interferometry (BLI) binding. The method, boiled down: as §1

The target in a further test is T7, CCL22_HUMAN (Homo sapiens, UniProt O00626).
T7 sequence (O00626 25-93): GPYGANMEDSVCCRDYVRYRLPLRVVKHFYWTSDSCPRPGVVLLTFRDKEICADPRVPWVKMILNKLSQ
The test is described as follows: Biolayer interferometry (BLI) binding. The method, boiled down:
as §1

Another test concerns the target CCL3L1_HUMAN (Homo sapiens, UniProt P16619). The test is described as follows: Biolayer interferometry (BLI) binding. In short, it runs like this:
as §1

The target of test [2] is T8, CCL8_HUMAN (Homo sapiens, UniProt P80075).
T8 sequence (P80075 24-99): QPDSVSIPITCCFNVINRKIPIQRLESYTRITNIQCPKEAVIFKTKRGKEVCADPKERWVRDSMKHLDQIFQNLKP
The test is described as follows: Biolayer interferometry (BLI) binding. The note with it: read-out: Kd, CCL8_HUMAN. The method, boiled down:
as §1

Test [3] deals with T9, CCL5_HUMAN (Homo sapiens, UniProt P13501).
T9 sequence (P13501 24-91): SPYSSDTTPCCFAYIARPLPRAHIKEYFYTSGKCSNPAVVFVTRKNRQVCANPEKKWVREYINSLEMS
The test is described as follows: Biolayer interferometry (BLI) binding. In short, it runs like this: as §1

Test [4] concerns the target T10, CCL11_HUMAN (Homo sapiens, UniProt P51671). The test is described as follows: Biolayer interferometry (BLI) binding. The method, boiled down:
as §1

Another test deals with T11, CCL19_HUMAN (Homo sapiens, UniProt Q99731).
T11 sequence (Q99731 22-98): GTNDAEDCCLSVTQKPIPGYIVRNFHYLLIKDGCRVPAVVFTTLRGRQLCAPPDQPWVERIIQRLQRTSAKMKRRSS
The test is described as follows: Biolayer interferometry (BLI) binding. The method, boiled down:
as §1

Another test addresses CCL7_HUMAN (Homo sapiens, UniProt P80098). Kind of test: Biolayer interferometry (BLI) binding. The method, boiled down:
as §1

For a further test, the target named is T12, CCL4_HUMAN (Homo sapiens, UniProt P13236).
T12 sequence (P13236 24-92): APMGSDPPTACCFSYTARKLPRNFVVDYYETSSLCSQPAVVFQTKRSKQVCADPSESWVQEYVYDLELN
Kind of test: Biolayer interferometry (BLI) binding. The method, boiled down:
as §1

For the next test, the target named is T13, CCL4L1_HUMAN (Homo sapiens, UniProt Q8NHW4).
T13 sequence (Q8NHW4 24-92): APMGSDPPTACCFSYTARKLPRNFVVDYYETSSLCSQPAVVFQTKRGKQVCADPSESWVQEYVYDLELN
The test is described as follows: Biolayer interferometry (BLI) binding. In short, it runs like this: as §1

Test [5] addresses T5, CCL18_HUMAN. The test is described as follows: Yeast surface display (YSD) FACS binding. In short, it runs like this:
(§2)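 Yeast clones displaying tick peptides were re-tested by FACS with labelled chemokine. Binding = % of peptide-expressing yeast above a background threshold set with streptavidin-Alexa647 alone; the mean percent shift was used where several clones were isolated. Confirmed binding ("YES") required >3-fold over background mean fluorescence intensity.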
(A flow cytometer gives signals particle by particle.)

The next test deals with CXCL12_HUMAN (Homo sapiens, UniProt P48061). The test is described as follows: Yeast surface display (YSD) FACS binding. The following applies: yeast surface display. In short, it runs like this:
(§3)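 Yeast clones displaying tick peptides were re-tested by FACS with labelled chemokine detected by streptavidin-Alexa conjugate. Binding was scored as % of peptide-expressing cells above a background set with streptavidin-Alexa alone, averaged over independent clones. In the screen tables, >3-fold over background mean fluorescence intensity was scored as binding.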

A further test concerns the target T14, CCL1_HUMAN (Homo sapiens, UniProt P22362).
T14 sequence (P22362 24-96): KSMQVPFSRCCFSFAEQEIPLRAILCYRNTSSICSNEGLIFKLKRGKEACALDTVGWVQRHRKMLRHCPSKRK
The test is described as follows: Yeast surface display (YSD) FACS binding. In short, it runs like this:
as §2

For test [6], the target named is T9, CCL5_HUMAN. The test is described as follows: Yeast surface display (YSD) FACS binding. In short, it runs like this:
as §2

Test [7] has as its target T10, CCL11_HUMAN. The test is described as follows: Yeast surface display (YSD) FACS binding. The method, boiled down: as §2
Another test concerns the target T15, CXCL8_HUMAN (Homo sapiens, UniProt P10145).
T15 sequence (P10145 21-99): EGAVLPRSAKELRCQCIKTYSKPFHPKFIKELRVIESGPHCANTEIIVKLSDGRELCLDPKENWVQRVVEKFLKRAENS
The test is described as follows: Yeast surface display (YSD) FACS binding. Set-up: label (chemical). The following applies: yeast surface display. The method, boiled down: as §3

In a further test the target is T16, CCL17_HUMAN (Homo sapiens, UniProt Q92583).
T16 sequence (Q92583 24-94): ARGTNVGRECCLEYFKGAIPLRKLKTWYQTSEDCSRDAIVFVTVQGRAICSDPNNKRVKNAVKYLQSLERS
Kind of test: Yeast surface display (YSD) FACS binding. The method, boiled down:
as §2

Test [8] deals with T8, CCL8_HUMAN. The test is described as follows: Yeast surface display (YSD) FACS binding. In short, it runs like this:
as §2

The target of the next test is CCL20_HUMAN (Homo sapiens, UniProt P78556). Kind of test: Yeast surface display (YSD) FACS binding. In short, it runs like this:
as §2

The target of a further test is T17, CCL3_HUMAN (Homo sapiens, UniProt P10147).
T17 sequence (P10147 24-92): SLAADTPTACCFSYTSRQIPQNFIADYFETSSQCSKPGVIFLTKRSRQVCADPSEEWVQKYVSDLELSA
The test is described as follows: Yeast surface display (YSD) FACS binding. The method, boiled down: as §2

T10 sequence (P51671 24-97): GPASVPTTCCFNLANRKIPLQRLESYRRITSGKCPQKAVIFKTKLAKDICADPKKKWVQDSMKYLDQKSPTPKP
CCL20_HUMAN, sequence (P78556 27-96): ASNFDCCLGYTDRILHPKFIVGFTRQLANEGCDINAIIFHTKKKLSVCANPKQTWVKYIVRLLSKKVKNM
CCL7_HUMAN, sequence (P80098 24-99): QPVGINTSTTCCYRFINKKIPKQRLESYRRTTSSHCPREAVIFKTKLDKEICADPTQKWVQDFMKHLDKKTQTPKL
CXCL12_HUMAN, sequence (P48061 22-93): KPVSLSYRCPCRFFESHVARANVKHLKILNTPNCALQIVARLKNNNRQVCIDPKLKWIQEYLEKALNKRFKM
CCL13_HUMAN, sequence (Q99616 17-98): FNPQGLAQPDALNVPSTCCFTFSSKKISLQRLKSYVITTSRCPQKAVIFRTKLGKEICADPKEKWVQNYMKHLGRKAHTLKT
CCL3L1_HUMAN, sequence (P16619 24-93): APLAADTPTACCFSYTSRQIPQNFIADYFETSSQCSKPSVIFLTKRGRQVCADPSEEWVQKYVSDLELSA

B1: P991_AMBCA: tick CKBP, Amblyomma cajennense (protein)
chain: ENGEGTTQPDYDNSTDYYNYEDFKCTCPAPHLNNTNGTVMKPIGCYYTCNVTRCTAPDTYPCYNLTEHQAKNLTTSPTTLCAVGNCDHGICVPNGTKELCFKAPNLEE
modifications: Amblyomma cajennense
Regarding B1, the Kd (usually the free concentration of one partner at which half of the binding sites on the other are occupied at equilibrium, for simple one-to-one binding) with CCL15_HUMAN was determined as 159 nM; in the test with CCL13_HUMAN, 0.419 nM; with CCL24_HUMAN, 6.54 nM; with CCL27_HUMAN, 38.9 nM; in the test with CCL14_HUMAN it was 0.43 nM; with CCL18_HUMAN [1] it was 0.209 nM. Further, the Kd in the test with CCL23_HUMAN amounted to 5.58 nM; with CCL22_HUMAN it was 3.97 nM; with CCL3L1_HUMAN, 1.4 nM; with CCL8_HUMAN [2], 8.79 nM; in the test with CCL5_HUMAN [3] it was 1.47 nM; in the test with CCL11_HUMAN [4], 3.43 nM. For the same molecule, the Kd with CCL19_HUMAN was 14.4 nM; in the test with CCL7_HUMAN it was 0.514 nM; in the test with CCL4_HUMAN, 5.82 nM; in the test with CCL4L1_HUMAN it was 0.827 nM.

B2: P1029_AMBPA: tick CKBP, Amblyomma parvum; named P1209_AMBPA in Table 1 (protein, listed as Amblyomma parvum)
chain: KTDTKNAAGELPPKVAIPGCEDPATTKAPLPDDPRYYGVTIDKDGCQRKVLGSSQRQQRQVQNGRKPGRKGRGRRPVFVDLKLTVDCKRKCNGTYSQLPDGEPCLVCDGEPYGRHRTIKGGCYQGNCSSGQCHRGERKVNCYIPKNITNNVLNSVNLAE
B2: in the test with CCL18_HUMAN [5], the “Binding to CCL18_HUMAN, YSD” value is recorded as “YES (An arbitrary threshold of >3 fold over background mean fluorescence intensity was chosen to describe confirmed re-tests. Where binding was detected data are indicated as “YES”)”. Moreover, the “Binding to CXCL12_HUMAN, YSD” value with CXCL12_HUMAN is reported as “YES (An arbitrary threshold of >3 fold over background mean fluorescence intensity was chosen to describe confirmed re-tests. Where binding was detected data are indicated as “YES”)”. In the test with CCL1_HUMAN, the “Binding to CCL1_HUMAN, YSD” value was “YES (An arbitrary threshold of >3 fold over background mean fluorescence intensity was chosen to describe confirmed re-tests. Where binding was detected data are indicated as “YES”)”. Further, in the test with CCL5_HUMAN [6], the “Binding to CCL5_HUMAN, YSD” value was “YES (An arbitrary threshold of >3 fold over background mean fluorescence intensity was chosen to describe confirmed re-tests. Where binding was detected data are indicated as “YES”)”. Further, in the test with CCL11_HUMAN [7], the “Binding to CCL11_HUMAN, YSD” value is “YES (An arbitrary threshold of >3 fold over background mean fluorescence intensity was chosen to describe confirmed re-tests. Where binding was detected data are indicated as “YES”)”.

B3: P1030_AMBPA: tick CKBP, Amblyomma parvum (protein, listed as Amblyomma parvum)
chain: GPPSIPGNESIPGCGDAGTTTAPEDNPKHYGTLTDKKGCTLPIIGTWMTAVDHQHLQGTRGERRGPTGKVNLPASCRKNCHGRQEILRDGIPCRKVVGNPKGSKKHLKSGCLRGKCLAGQCVNDGRRISCYVPRNITDTEPTPGLLAE
Take B3: the “Binding to CXCL8_HUMAN, YSD” value in the test with CXCL8_HUMAN is “YES (An arbitrary threshold of >3 fold over background mean fluorescence intensity was chosen to describe confirmed re-tests. Where binding was detected data are indicated as “YES”)”. Further, the “Binding to CCL17_HUMAN, YSD” value with CCL17_HUMAN is “YES (An arbitrary threshold of >3 fold over background mean fluorescence intensity was chosen to describe confirmed re-tests. Where binding was detected data are indicated as “YES”)”. In addition, the “Binding to CCL8_HUMAN, YSD” value with CCL8_HUMAN [8] is “YES (An arbitrary threshold of >3 fold over background mean fluorescence intensity was chosen to describe confirmed re-tests. Where binding was detected data are indicated as “YES”)”. In addition, the “Binding to CCL5_HUMAN, YSD” value in the test with CCL5_HUMAN [6] is “YES (An arbitrary threshold of >3 fold over background mean fluorescence intensity was chosen to describe confirmed re-tests. Where binding was detected data are indicated as “YES”)”. The “Binding to CCL20_HUMAN, YSD” value in the test with CCL20_HUMAN is “YES (An arbitrary threshold of >3 fold over background mean fluorescence intensity was chosen to describe confirmed re-tests. Where binding was detected data are indicated as “YES”)”. For the same molecule, the “Binding to CCL11_HUMAN, YSD” value in the test with CCL11_HUMAN [7] is recorded as “YES (An arbitrary threshold of >3 fold over background mean fluorescence intensity was chosen to describe confirmed re-tests. Where binding was detected data are indicated as “YES”)”. For the same molecule, the “Binding to CCL3_HUMAN, YSD” value in the test with CCL3_HUMAN is listed as “YES (An arbitrary threshold of >3 fold over background mean fluorescence intensity was chosen to describe confirmed re-tests. Where binding was detected data are indicated as “YES”)”.

Values taken from patent US20200247855A1, “THERAPY AND DIAGNOSTICS” (OXFORD UNIVERSITY INNOVATION LIMITED, priority 2017, published 2020).
